Biological target: GrpU protein from Clostridiales bacterium 1_7_47FAA (Clostridiales bacterium 1_7_47FAA)
Assay: crystal structure

stoichiometry N: 6
Substance: GrpU protein from Clostridiales bacterium 1_7_47FAA (natural protein)
